# Experimental data: patent publication US20170306044A1 (ENGMAB, published 2017)
# “And” between values parts separate entries of the source, which are not always exact repeats. Equal entries are not always repeated.
# How the values were obtained:
# [1] = molecular target: T1, human ROR1 (tyrosine-protein kinase transmembrane receptor ROR1) (human, UniProt Q01973 30-937); assay: flow cytometry, maximum MFI at 10 µg/mL antibody, PA-1 against SK-OV-3 cells
# T1 construct: whole, on cells; the assays used the protein on cells
# Experimental: (§1) a) The level of expression of ROR1 is measured on human ovarian cancer cell lines by flow cytometry including PA-1, MCAS, EFO-21, COLO-704, SW-626, KURAMOCHI, OVSAHO, SNU-119, COV362, OVCAR-4, COV318, TYK-nu, ON/KATE, CAOV-4, OAW28, CAOV-3, 59M, ONCO-DG-1, OVCAR-3. OVCAR-5, ES-2, COV-504, OV-90, RMUG-S, COV-644, SNU-840, OVISE, OAW42, OVTOKO, OVMANA, COV-434, OV56, SK-OV-3N2780, IGROV-1, and/or TOV-21G. Briefly, cells are harvested, washed, counted for viability, resuspended at 50,000 cells/well of a 96-well round bottom plate and incubated with Alexa488-labeled anti human ROR1 antibody for 30 min at 4° C. All ROR1 and isotype control antibodies are titrated and analyzed in final concentration range between 0.01-100 nM. […] At the end of incubation time, cells are centrifuged (5 min. at 350 x g), washed twice with FACS buffer, resuspended in 100 u.l FACS buffer and analyzed on a CantoII device running FACS Diva software. Expression of ROR1 is then quantitified as the median fluorescence intensity (MFI) and graphs showing the MFI in function of ROR1 antibody concentrations are plotted. EC50 values are then measured using Prism software (GraphPad). […] The calculated EC50s for binding of ROR1 Mab1 to SK-OV-3 are extrapolated values and may be underestimated. […]
# [2] = molecular target: T1, human ROR1 (tyrosine-protein kinase …); assay: flow cytometry on SK-OV-3 ovarian cancer cells (MFI against antibody concentration); extrapolated value
# Experimental: as §1
# [3] = molecular target: T1, human ROR1 (tyrosine-protein kinase …); assay: flow cytometry on PA-1 ovarian cancer cells (MFI against antibody concentration)
# Experimental: as §1
# T1 sequence (Q01973 30-937): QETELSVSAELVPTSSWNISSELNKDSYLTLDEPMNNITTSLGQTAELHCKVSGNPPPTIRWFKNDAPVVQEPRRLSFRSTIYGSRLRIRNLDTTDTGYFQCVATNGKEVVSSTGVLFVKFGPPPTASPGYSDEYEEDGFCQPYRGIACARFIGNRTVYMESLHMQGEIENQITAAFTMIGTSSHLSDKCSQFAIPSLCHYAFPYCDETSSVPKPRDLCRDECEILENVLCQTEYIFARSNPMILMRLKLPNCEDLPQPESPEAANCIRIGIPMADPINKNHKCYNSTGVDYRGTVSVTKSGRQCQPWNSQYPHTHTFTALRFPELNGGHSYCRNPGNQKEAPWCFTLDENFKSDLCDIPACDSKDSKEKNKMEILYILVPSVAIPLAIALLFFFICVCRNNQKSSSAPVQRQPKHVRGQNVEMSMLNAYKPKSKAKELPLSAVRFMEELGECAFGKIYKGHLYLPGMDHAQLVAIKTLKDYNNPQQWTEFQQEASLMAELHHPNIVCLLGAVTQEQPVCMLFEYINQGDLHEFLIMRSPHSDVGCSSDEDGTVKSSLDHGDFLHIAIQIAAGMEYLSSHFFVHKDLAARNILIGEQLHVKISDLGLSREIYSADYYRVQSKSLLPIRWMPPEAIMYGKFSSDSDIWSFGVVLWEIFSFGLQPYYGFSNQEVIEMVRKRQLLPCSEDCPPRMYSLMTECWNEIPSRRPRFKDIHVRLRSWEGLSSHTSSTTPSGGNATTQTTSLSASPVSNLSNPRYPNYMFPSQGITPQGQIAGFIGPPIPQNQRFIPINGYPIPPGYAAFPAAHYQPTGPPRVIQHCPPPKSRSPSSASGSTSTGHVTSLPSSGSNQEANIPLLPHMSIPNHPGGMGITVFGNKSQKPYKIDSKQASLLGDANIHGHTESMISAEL
binder,measurement,setting,value
"ROR1 Mab1 IgG (anti-ROR1 antibody MAB1) (antibody, V domains shown, also called ROR1 IgG; Mab1 anti-ROR1 antibodies) VH: QEQLVESGGRLVTPGGSLTLSCKASGFDFSAYYMSWVRQAPGKGLEWIATIYPSSGKTYYATWVNGRFTISSDNAQNTVDLQMNSLTAADRATYFCARDSYADDGALFNIWGPGTLVTISS VL: ELVLTQSPSVSAALGSPAKITCTLSSAHKTDTIDWYQQLQGEAPRYLMQVQSDGSYTKRPGVPDRFSGSSSGADRYLIIPSVQADDEADYYCGADYIGGYVFGGGTQLTVTG",maximum MFI on PA-1 cells relative to SK-OV-3 cells,[1],~3 fold
same,EC50,[2],~4.62 nM and ~0.69 µg/mL
same,EC50,[3],0.87 nM and 0.13 µg/mL
